In patent US20220048967A1 (published 2022):
Numbered stars: 1 amine (or outer) side, 2 acyl side, 3 side chain; on linkers, the order of the positions; unused ones are H or OH. Square brackets hold non-standard residues; d marks the D form. Side chains are listed from the residue outwards. Ends that are not written are not given here. * marks the point of attachment. C20 diacid = O=C(O)CCCCCCCCCCCCCCCCCCC(=O)*; γGlu = O=C(O)[C@H](CCC(=O)[*:2])N[*:1]; AEEA = NCCOCCOCC(=O)O; Aib = CC(C)(N)C(=O)O

Assays:
human GLP-1 receptor = human GLP-1 receptor (human, UniProt P43220 24-463); assay: cell-based or functional assay
[1] = biological target: Pro-Link-tagged Human GLP-1R (human, UniProt P43220 24-463); assay: cell-based or functional assay

Row | Binder | hGLP1R GTPgS % Top (human GLP-1 receptor) [%] | hGLP1R GTPgS Rel EC50 (human GLP-1 receptor) [nM] | hGLP1R B-Arrestin2 % Top [1] [%] | hGLP1R B-Arrestin2 Rel EC50 [1] [nM]
1 | XXEGTXTSDYSILLDKKAQXAFIEYLIEGGPSSGAPPPS (D-Tyr1, Aib2, αMeF6, K17 conjugated to (2-[2-(2-Amino-ethoxy)-ethoxy]-acetyl)2-(γ-Glu)-CO-(CH2)18-CO2H, Aib20, C-terminal amide (NH2)) [Example 329] | 83.6 | 0.343 | 63.4 | 4.73
2 | XXEGTFTSDYSIXLDKKAQXEFIEYLIAGGPSSGAPPPS (D-Tyr1, Aib2, αMeL13, K17 conjugated to (2-[2-(2-Amino-ethoxy)-ethoxy]-acetyl)2-(γ-Glu)-CO-(CH2)18-CO2H, Aib20, C-terminal amide (NH2)) [Example 290] | 66.2 | 0.466 | 20 | 23.8
3 | YXEGTFTSDYSIXLDKKAQXEFIEYLIEGGPSSGAPPPS (Aib2, αMeL13, K17 conjugated to (2-[2-(2-Amino-ethoxy)-ethoxy]-acetyl)2-(γ-Glu)-CO-(CH2)18-CO2H, Aib20, C-terminal amide (NH2)) [Example 333] | 83.4 | 0.442 | 58.2 | 54.8
4 | XXEGTFTSDYSIXLDKKAQXAFIEYLIEGGPSSGAPPPS (not fully specified; D-Tyr1, Aib2, αMeL13, K17 conjugated to (2-[2-(2-Amino-ethoxy)-ethoxy]-acetyl)2-(γ-Glu)-CO-(CH2)18-CO2H, Aib20, C-terminal amide (NH2)) [Example 334] | 70.2 | 0.432 |  | > 10300
5 | XXEGTXTSDYSIXLDKKAQXEFIEYLIAGGPSSGAPPPS (D-Tyr1, Aib2, αMeF6, αMeL13, K17 conjugated to (2-[2-(2-Amino-ethoxy)-ethoxy]-acetyl)2-(γ-Glu)-CO-(CH2)18-CO2H, Aib20, C-terminal amide (NH2)) [Example 345] | 62 | 0.684 | 74.7 | 3.08
6 | XXEGTFTSDYSIXLDKKAQXAFIEYLIAGGPSSGAPPPS (not fully specified; D-Tyr1, Aib2, αMeL13, K17 conjugated to (2-[2-(2-Amino-ethoxy)-ethoxy]-acetyl)2-(γ-Glu)-CO-(CH2)18-CO2H, Aib20, C-terminal amide (NH2)) [Example 340] | 67.4 | 0.45 | 20.1 | 10.7
7 | FXEGTFTSDYSIXLDKKAQXAFIEYLIAGGPSSGAPPPS (not fully specified; Aib2, αMeL13, K17 conjugated to (2-[2-(2-Amino-ethoxy)-ethoxy]-acetyl)2-(γ-Glu)-CO-(CH2)18-CO2H, Aib20, C-terminal amide (NH2)) [Example 337] | 59.5 | 0.322 | 34.1 | 17.4
8 | XXEGTFTSDYSIXLDXKAQXAFIEYLIAGGPSSGAPPPS (D-Tyr1, Aib2, αMeL13, Orn16, K17 conjugated to (2-[2-(2-Amino-ethoxy)-ethoxy]-acetyl)2-(γ-Glu)-CO-(CH2)18-CO2H, Aib20, C-terminal amide (NH2)) [Example 346] | 56.6 | 0.737 | 19.3 | 3.25
9 | XXEGTFTSDYSIXLDEKAQXAFIEYLIAGGPSSGAPPPS (not fully specified; D-Tyr1, Aib2, αMeL13, K17 conjugated to (2-[2-(2-Amino-ethoxy)-ethoxy]-acetyl)2-(γ-Glu)-CO-(CH2)18-CO2H, Aib20, C-terminal amide (NH2)) [Example 341] | 78.9 | 0.496 | 21.9 | 18.8
10 | XXEGTXTSDYSIXLDKKAQXAFIEYLIEGGPSSGAPPPS (not fully specified; D-Tyr1, Aib2, αMeF6, αMeL13, K17 conjugated to (2-[2-(2-Amino-ethoxy)-ethoxy]-acetyl)2-(γ-Glu)-CO-(CH2)18-CO2H, Aib20, C-terminal amide (NH2)) [Example 335] | 89.3 | 0.285 | 73 | 5.31
11 | XXEGTXTSDYSIXLDKKAQXAFIEYLIEGGPSSGAPPPS (not fully specified; D-Tyr1, Aib2, αMeF(2F)6, αMeL13, K17 conjugated to (2-[2-(2-Amino-ethoxy)-ethoxy]-acetyl)2-(γ-Glu)-CO-(CH2)18-CO2H, Aib20, C-terminal amide (NH2)) [Example 336] | 90.2 | 0.377 | 82.5 | 7.78
12 | Y[Aib]EGTFTSDYSILLDEK([AEEA-AEEA-γGlu-C20 diacid])AQ[Aib]AFIEYLIAGGPSSGAPPPS-NH2 (N-terminus assumed; SMILES CC[C@H](C)[C@H](NC(=O)[C@H](CC(C)C)NC(=O)[C@H](Cc1ccc(O)cc1)NC(=O)[C@H](CCC(=O)O)NC(=O)[C@@H](NC(=O)[C@H](Cc1ccccc1)NC(=O)[C@H](C)NC(=O)C(C)(C)NC(=O)[C@H](CCC(N)=O)NC(=O)[C@H](C)NC(=O)[C@H](CCCCNC(=O)COCCOCCNC(=O)COCCOCCNC(=O)CC[C@H](NC(=O)CCCCCCCCCCCCCCCCCCC(=O)O)C(=O)O)NC(=O)[C@H](CCC(=O)O)NC(=O)[C@H](CC(=O)O)NC(=O)[C@H](CC(C)C)NC(=O)[C@H](CC(C)C)NC(=O)[C@@H](NC(=O)[C@H](CO)NC(=O)[C@H](Cc1ccc(O)cc1)NC(=O)[C@H](CC(=O)O)NC(=O)[C@H](CO)NC(=O)[C@@H](NC(=O)[C@H](Cc1ccccc1)NC(=O)[C@@H](NC(=O)CNC(=O)[C@H](CCC(=O)O)NC(=O)C(C)(C)NC(=O)[C@@H](N)Cc1ccc(O)cc1)[C@@H](C)O)[C@@H](C)O)[C@@H](C)CC)[C@@H](C)CC)C(=O)N[C@@H](C)C(=O)NCC(=O)NCC(=O)N1CCC[C@H]1C(=O)N[C@@H](CO)C(=O)N[C@@H](CO)C(=O)NCC(=O)N[C@@H](C)C(=O)N1CCC[C@H]1C(=O)N1CCC[C@H]1C(=O)N1CCC[C@H]1C(=O)N[C@@H](CO)C(N)=O) [Example 330] | 47.8 | 1.05 |  | > 10900
13 | YXEGTFTSDYSIXLDEKAQXEFIEYLIAGGPSSGAPPPS (Aib2, αMeL13, K17 conjugated to (2-[2-(2-Amino-ethoxy)-ethoxy]-acetyl)2-(γ-Glu)-CO-(CH2)18-CO2H, Aib20, C-terminal amide (NH2)) [Example 331] | 80.9 | 0.375 | 44.3 | 12.8
14 | YXEGTFTSDYSIXLDEKAQXAFIXYLIAGGPSSGAPPPS (not fully specified; Aib2, αMeL13, K17 conjugated to (2-[2-(2-Amino-ethoxy)-ethoxy]-acetyl)2-(γ-Glu)-CO-(CH2)18-CO2H, Aib20, D-Glu24, C-terminal amide (NH2)) [Example 343] | 74.9 | 0.522 | 41.4 | 45.5
15 | YXEGTFTSDYSIXLDEKAQXAFIEYLIAGGPSSGAPPPS (Aib2, αMeL13, K17 conjugated to (2-[2-(2-Amino-ethoxy)-ethoxy]-acetyl)2-(γ-Glu)-CO-(CH2)18-CO2H, Aib20, C-terminal amide (NH2)) [Example 332] | 81.5 | 0.453 | 45.6 | 17.1
16 | XXEGTFTSDYSIXLDEKAQXEFIEYLIAGGPSSGAPPPS (not fully specified; D-Tyr1, Aib2, αMeL13, K17 conjugated to (2-[2-(2-Amino-ethoxy)-ethoxy]-acetyl)2-(γ-Glu)-CO-(CH2)18-CO2H, Aib20, C-terminal amide (NH2)) [Example 342] | 77.2 | 0.414 | 20.7 | 35
17 | YXEGTFTSDYSIXLDKKAQXEFIEYLIAGGPSSGAPPPS (not fully specified; Aib2, αMeL13, K17 conjugated to (2-[2-(2-Amino-ethoxy)-ethoxy]-acetyl)-(γ-Glu)-CO-(CH2)18-CO2H, Aib20, C-terminal amide (NH2)) [Example 339] | 74.1 | 0.326 | 44 | 10.7
18 | YXEGTFTSDYSIXLDEKAQXDFIEYLIAGGPSSGAPPPS (not fully specified; Aib2, αMeL13, K17 conjugated to (2-[2-(2-Amino-ethoxy)-ethoxy]-acetyl)2-(γ-Glu)-CO-(CH2)18-CO2H, Aib20, C-terminal amide (NH2)) [Example 344] | 85.8 | 0.423 | 46 | 34.3
